One assay addresses cyclic peptide CP9. Briefly: SPR. The conditions noted are these: both partners purified.
The next assay addresses cyclic peptide CP10. Briefly: SPR. The following applies: both partners purified.

B1: hemagglutinin (HA) ectodomain of A/New Caledonia/20/1999 (H1N1) (domain or fragment)
chain: not shown
modifications: biotin on the BirA site
As a reminder, the koff is a measure of how fast the partners let go of each other. Broadly, the kon is the rate constant with which the complex forms. Low values mean slow association, high ones fast association. In the assay with cyclic peptide CP9, B1 had a koff of 0.351 s⁻¹ and a kon of 108000 M⁻¹ s⁻¹. In the assay with cyclic peptide CP10, this molecule displayed a dissociation rate constant (koff) of 0.378 s⁻¹ and a kon of 50300 M⁻¹ s⁻¹.

(Values after PMC12714728 (npj Viruses, 2025).)
